The text below walks through data of a protein production outcome set (Wang et al. 2014).

A short description of the series: label from the status in PepcDB records.

“MKYSLGIDLGTTFSVVSIIDENGAPKVLKNKEGNTLTPSVIYFSGEEIIVGDDAKEMQAMGDNNIACFFKRNMGDENFVLEFQNKYYNAEDLSVIVLKKLKKDAEDFLKAEVKDAVITVPAYFNNIQRQSTINAGKRAEFNVLSILNEPTAAAMAYGMKASGENKNILVYDLGGGTFDVTLVHIGEELIKVLSTDGDHELGGKDWDDRIAMYIGEKFFEKFGVNPMDDIEYYNDILVKCENVKKHLSKRESTDISIYYCDLSEKFTITKEIFLGLTGDLLQRTKSLSDDVIKSAGLTWEDIDGVLPVGGSTRMPMVLDFIKEVSKKEPIVGINVDEAVSIGAAIKASMENATNTPTLRREEKALFTLGGYKKTEDVMSHSLGMIALNSTGERYINSIIIEKNKKIPCTEKRPYEIRTGRNRNNVLEVYMLQGESEEISDCTILGKYVFYDIEYVGRKPSIIDIEYSYNKNGVVDVFATQRETAKKLPLKIEKLSEDFIFEEELNEKEEAVHKNIVIAIDLSGSMRGKPLEEAIEASKTFVDSIDEGSFSLALIGFADKVKTLINLTEDREEIFRAIDGLKKADVGTSTMSEPFSEAYNILKDAYGDCFVVVLTDGQWYGKKDIMAEVNKCKEYEIEIAAIGFGNAKKDFLDKIATCEENSIFTEVSNLKQSFSRIAKVISRSDGSIKIFQKSNSIKLR”: the protein production entry was “failed”.

As to “MKYTVYLFDFDYTLADSSRGIVTCFRSVLERHGYTGITDDMIKRTIGKTLEESFSILTGITDADQLESFRQEYSKEADIYMNANTILFPDTLPTLTHLKKQGIRIGIISTKYRFRILSFLRNHMPDDWFDIIIGGEDVTHHKPDPEGLLLAIDRLKACPEEVLYIGDSTVDAGTAAAAGVSFTGVTSGMTTAQEFQAYPYDRIISTLGQLISVPEDKS”, the protein production entry is “not failed”.

In the case of “MLAAGMSRRMGFNKLLAPLCGKRVLWHVLELVARFEGVLEGAVVVTSGEVADVLRRERPPGRRGLFRVVVNREQWRGLSHSIRLGVEASPGARAYLFFNGDRPFVSKHTVARVLALYMARRPLIAAPMAGGAIAPPVVVDSRLRGELLRLSGDTGVRSLFGKYRDSLAVVEVDDPGLHLDVDTPEDLERASKMCSQLGGGPREKPLEHHHHHH”, the protein production entry is “failed”.

In the case of “MLAERGANITGLDISGPMLQQGREKAQATGVDDRVEFMRGDAARLPFPDDHFDTVFAMRFFHLADTPAAFLAEMRRVSKEQVFFDTFNRFSTRSIYNWALPMGSRLYSRWEIDRLLDGAGLELTDANHDWLLPYGFYRKIPNELAASFRSLDTALGGTPLGEKLASVSYWNTHVLEHHHHHH”, the protein production entry is on record as “failed”.

Regarding “MLAGADKVFLYAKPEQIEAFVAAAQSAGVRQVVLLSSVSVVMATSEQNPIARMHRTVELAIERSGLDWTFIRPGMFATNARWWWGESIRGEGVVRLPYPEAQNAPVHEKDMAALAVTALTEPGHSHQAYTVHGSESLTLRRQVEHIGEALGRPIRVETVSVEQAREEFAEKAPSNVAEALLRMWAAADGVPAPVSVIVDRITGRPAHTFAQWAADHADDFR”, the protein production result was “failed”.

For the sequence “MLAIFQKAFAHPPEELNSPASHFSGKTPKLPGETLSDFLSHHQNNAFSMNFGDSAVLAYARQETSLRQRLFCGLDGIYCMFLGRLNNLCTLNRQYGLSGKNSNEAMFVIEAYRTLRDRGPYPADQVLRGLEGSFAFVVYDTQTSSVFSALSSDGGESLYWGISGDGSVVMSDDIQIIKQGCAKSFAPFPNGCMFHSETGLKSFDHPTNMMKAMPRIDSEGVLCGASFKVDACSKINSIPRRGSEANWALANSR”, the protein production result was “failed”.

Turning to “MLAILGFVMMIVFMYLIMSNRLSALIALIVVPIVFALISGFGKDLGEMMIQGVTDLAPTGIMLLFAILYFGIMIDSGLFDPLIAKILSFVKGDPFKIAVGTAVLTMTISLDGDGTTTYMITIRAMLPLYKRLGMNRLVLAGIAMLGSGVMNIIPWGEPTARVLASLKLDTSEVFTPLIPAMIAGILWVIAVAYILGKKERKRLGVISIDHAPSSDPEAAPLKRPALQWFNLLLTVALMAALITSLLPLPVLFMTAFAVALMVNYPNVKEQQKRISAHAGNALNVVSMVFAAGIFTGILSGTKMVDAMAHSTRSLIPDAMGPHLPLITAIVSMPFTFFMSNDAFYFGVLPIIAEAASAYGIDAAEIGRASLLGQPVHLLSPLVPSTYLLVGMAGVSFGDHQKFTIKWAVGTTIVMTIAALLIGIISF”, the protein production result is given as “failed”.

Turning to “MLAMHGSKEKMMTSYQTIIQNHQPLAPARYTAKRIIKNDAEALQIATELSQSFKEKSIQRDAERVLPFDEIEAFSQSGLWAITVPKRYGGAEVSSLTLAKIIALFSGVDGSIGQIPQNHFYALEVLRNTGTEQQKQRLYQEVLSGLRLGNALAEFKPKNASLKQTQIKAIETGYVINGEKFYCTGSLFAHRIPTLVIDEEGREYLAFVRSDSEGLSLIDNWTGFGQRVTGSGGVKFTQVFVAAEDVIPFDSAFQHPTLVGPFAQLMHAAIEVGIARAAFEEALKRVHAARPWIDSNVDAAAQDPLTIYEIGRVAADVHASEALLKHAALTIDEVRLNTNVETIAKASIAVAKIRAHSTETALKASSKLIELAGSRGSQSVDGLDRFWRNARVHTLHDAARWKYYFIGNYVLNDIFPPRRGTL”, the protein production result was “failed”.

Consider “MLAVLIGQHGEYLLIFLVSPGQFQEGVMTVHDHWQMDASAPELYERYLVPAITSVWADDLLDRIDPAKGECVLDVACGTGVVARRLAERGHVGRLVGIDLNGAMLAVARAKSSDVEWTEGSALDLPFATRSFDVVLCQLGLQFFPDRPQALREMARVLKPSGRLGLSVYSAIEHTPAANAFVQALDGFLGPESSRTKRAEHLTCNADEVGNWVRQAGFDRVGVETVTKQIGFPSALDYVRFQLTATPMAALLTREDDAGRERTIAAIADDVAARLDPSILANGRLTFPQESFVVVASLR”, for which the protein production result is listed as “failed”.

Take “MLAYQGLFQNGLMQVSPSYFSQTYLLGDVNYQTVGLDDKGAIVEKYSDLINSLDDKTNFQLTIFNQKVNLEKFRKSILYPLQEDGFDTYRDELNRMMDANLEAGENNFSAVKFLSFGKSDQTPKLAFRSLSQIGEYFKSGFSEIDVSLGLLGGEERVNVLADMLRGENHLPFSYKDLTLSGQSTKHFIAPTYLSFKHKNHIELDDRLLQIVYVRDYGMELGDKFIRDLMQSDLEVMISLHAKGSTKSETMTKLRTKKTLMESQKIGEQQKMARTGIYLEKVGHVLENNIDEAEALLQTMTQTGDKLFDTVFLIGVLADTEDQLKQSLDIIKQVAGSNDMIIDNLTYMQEAAFNSLLPFGKNYLEGVSRSLLTSNIAVNAPWTSVDIHDKGGKFYGINQISSNIISIDRGKLNTPSGLILGTSGAGKGMATKHEIISTKLKEADSDTEIIIVDPENEYSIIGQAFGGESIDIAPDSTTFLNVLELSDENMDEDPVKVKSEFLLSWIGKLLDRKMDGREKSLIDRVTRLTYKHFDTPSLVEWVFVLSQQPEQEAKDLALDMELYVEGSLDIFSHRTNIKTDSHFLIYNVKKLGDELKQIALMVIFDQIWNRVVKNQKLGKKTWIYFDEMQLLLLDKYASDFFFKLWSRVRKYGAIPTGITQNVETLLLDANGRRIIANSEFMILLKQAKSDREELVHMLGLSKELEKYLVNPEKGAGLIKAGSTVVPFKNKIPQHTKLFDIMSTDPEKMRTLEHHHHHH”: the protein production entry is “failed”.

With “MLCRKNSSLVDRGNVPVYLNVYDLTPINGYAYWLGLGVYHSGVEVHGIEYAYGAHEYPSTGIFEGEPKQCEGFTFRKSILIGKTDLGPLEVRATMEQLADNYKGSSYNLITKNCNHFCDETCIKLTGNPIPSWVNRLARIGKFSGFMCNCVLPATINATRFGNNRVNQDKSCEAENEKKKLTSVSSRERSTIATPSSSSSSPSVQVRGRSRKRRPRALQPSSPLTLGSSSV”, the protein production entry is “failed”.

Regarding “MLDAKTSTLLWAAETFTLAVLLGTLWLHRPSRRHNLYFAAGFLATGFGTVMVALRGDISSFLSIQVGNTLALSAFGFWLAGLLSLEQRKLGGWIAIPALLWIAGMFVPSVPEDMVARILLYHASAATGYFMLAGVLLGSRARASRSRKVLATILILQAFAGAIVASIVIPANAAVPNAIPMTSALSISGMLGFTAIIMISAKIIMEDTEIRLHRLAMTDHLTGVLNRRGLLEEFEHIKKRSHGSDRYVALVLFDIDHFKKINDRYGHQSGDAVLVHFCNIAQRVIGERGLFVRMGGEEFALVAEVESPSSTVTLAEAIRSNLRLSKITARNEAIKVTTSVGISEAMIKDADLSVMMTEADRALYAAKKAGRNRTVIHVNSANVVVPAPDRDENPMDNNADRQVAALNRISAIASR”, the protein production result is reported as “failed”.
